Target: T1, ElaB (E. coli, UniProt P0AEH5 1-101)
T1 construct: ElaB, E. coli, paralogue of YqjD, inner membrane-associated; source: endogenous, E. coli (MG1665) lysate, log phase and stationary phase
T1 sequence (looked up): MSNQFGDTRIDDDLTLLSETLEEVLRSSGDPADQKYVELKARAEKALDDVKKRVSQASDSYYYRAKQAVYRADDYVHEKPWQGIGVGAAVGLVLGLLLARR
Test: cross-linking; quantitative CXMS: log phase and stationary phase E. coli (MG1665) lysates (100 µg each, 50 mM HEPES pH 8.0, 150 mM NaCl) cross-linked with [d0]-/[d6]-bAL2 at RT for 1 hr, forward and reverse labelling; pLink, pQuant
Details: partners not purified

B1: YqjD (natural protein, E. coli, UniProt P64581 1-101, looked up)
chain: MSKEHTTEHLRAELKSLSDTLEEVLSSSGEKSKEELSKIRSKAEQALKQSRYRLGETGDAIAKQTRVAAARADEYVRENPWTGVGIGAAIGVVLGVLLSRR
notes: source: endogenous, E. coli (MG1665) lysate, log phase and stationary phase
In the case of B1, the “fold increase of the cross-link in the stationary phase over the log phase” value is reported as no less than 10 fold.

From PMC4811778 (eLife, 2016)
